Patent US20140243502

Legend:
[1] = molecular target: non-targeted mut-scFv-TAP (UniProt P17726)
[2] = molecular target: recombinant tick anticoagulant peptide (rTAP) (UniProt P17726)
[3] = tested on: scFv anti-LIBS-TAP fusion protein

Substance: factor Xa (fXa)
- cleavage of chromogenic substrate (spectrozyme FXa #222) by factor Xa, OD at 405 nm [1]: inhibition of factor Xa activity by rTAP, scFv anti-LIBS-TAP, and non-targeted mut-scFv-TAP, but not by scFv anti-LIBS
- cleavage of chromogenic substrate (spectrozyme FXa #222) by factor Xa, OD at 405 nm [2]: inhibition of factor Xa activity by rTAP, scFv anti-LIBS-TAP, and non-targeted mut-scFv-TAP, but not by scFv anti-LIBS
- cleavage of chromogenic substrate (spectrozyme FXa #222) by factor Xa, OD at 405 nm [3]: inhibition of factor Xa activity by rTAP, scFv anti-LIBS-TAP, and non-targeted mut-scFv-TAP, but not by scFv anti-LIBS
